Values of other authors as cited in patent US20040241754A1, “Modulating neuronal plasticity” (The Salk Institute for Biological Studies, priority 2003, published 2004).

Legend:
EphB4 = target: T1, EphB4 (Homo sapiens, UniProt P54760); conditions: read-out: Kd for binding to EphB4; cited from earlier work
T1 sequence (P54760 16-987): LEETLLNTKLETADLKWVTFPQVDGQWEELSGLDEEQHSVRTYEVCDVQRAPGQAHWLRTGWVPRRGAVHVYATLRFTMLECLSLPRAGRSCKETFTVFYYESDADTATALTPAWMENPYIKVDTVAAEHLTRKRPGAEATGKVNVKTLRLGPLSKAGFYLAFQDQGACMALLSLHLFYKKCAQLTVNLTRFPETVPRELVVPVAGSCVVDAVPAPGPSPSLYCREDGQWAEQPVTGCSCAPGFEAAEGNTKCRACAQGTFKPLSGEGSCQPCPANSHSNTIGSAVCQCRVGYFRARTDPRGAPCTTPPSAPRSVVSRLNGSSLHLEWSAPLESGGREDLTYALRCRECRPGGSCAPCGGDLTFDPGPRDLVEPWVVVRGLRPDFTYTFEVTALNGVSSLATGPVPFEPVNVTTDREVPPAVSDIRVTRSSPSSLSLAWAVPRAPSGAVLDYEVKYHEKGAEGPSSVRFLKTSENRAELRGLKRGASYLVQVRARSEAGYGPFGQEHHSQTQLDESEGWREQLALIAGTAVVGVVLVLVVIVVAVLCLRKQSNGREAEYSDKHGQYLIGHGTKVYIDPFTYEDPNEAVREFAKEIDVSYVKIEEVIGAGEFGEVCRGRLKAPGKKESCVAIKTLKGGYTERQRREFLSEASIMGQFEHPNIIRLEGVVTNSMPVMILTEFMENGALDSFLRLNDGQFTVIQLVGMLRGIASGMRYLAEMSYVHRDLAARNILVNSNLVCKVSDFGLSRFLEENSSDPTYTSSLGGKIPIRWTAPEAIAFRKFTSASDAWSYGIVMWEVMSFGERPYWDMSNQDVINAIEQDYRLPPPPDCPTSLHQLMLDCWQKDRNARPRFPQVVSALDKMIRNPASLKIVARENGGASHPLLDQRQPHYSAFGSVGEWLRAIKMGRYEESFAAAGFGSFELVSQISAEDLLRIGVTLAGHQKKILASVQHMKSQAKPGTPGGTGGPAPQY

EphA2 = EphA2 (Homo sapiens, UniProt P29317); conditions: read-out: Kd for binding to EphA2; cited from earlier work
Sequence of EphA2 (P29317 24-976): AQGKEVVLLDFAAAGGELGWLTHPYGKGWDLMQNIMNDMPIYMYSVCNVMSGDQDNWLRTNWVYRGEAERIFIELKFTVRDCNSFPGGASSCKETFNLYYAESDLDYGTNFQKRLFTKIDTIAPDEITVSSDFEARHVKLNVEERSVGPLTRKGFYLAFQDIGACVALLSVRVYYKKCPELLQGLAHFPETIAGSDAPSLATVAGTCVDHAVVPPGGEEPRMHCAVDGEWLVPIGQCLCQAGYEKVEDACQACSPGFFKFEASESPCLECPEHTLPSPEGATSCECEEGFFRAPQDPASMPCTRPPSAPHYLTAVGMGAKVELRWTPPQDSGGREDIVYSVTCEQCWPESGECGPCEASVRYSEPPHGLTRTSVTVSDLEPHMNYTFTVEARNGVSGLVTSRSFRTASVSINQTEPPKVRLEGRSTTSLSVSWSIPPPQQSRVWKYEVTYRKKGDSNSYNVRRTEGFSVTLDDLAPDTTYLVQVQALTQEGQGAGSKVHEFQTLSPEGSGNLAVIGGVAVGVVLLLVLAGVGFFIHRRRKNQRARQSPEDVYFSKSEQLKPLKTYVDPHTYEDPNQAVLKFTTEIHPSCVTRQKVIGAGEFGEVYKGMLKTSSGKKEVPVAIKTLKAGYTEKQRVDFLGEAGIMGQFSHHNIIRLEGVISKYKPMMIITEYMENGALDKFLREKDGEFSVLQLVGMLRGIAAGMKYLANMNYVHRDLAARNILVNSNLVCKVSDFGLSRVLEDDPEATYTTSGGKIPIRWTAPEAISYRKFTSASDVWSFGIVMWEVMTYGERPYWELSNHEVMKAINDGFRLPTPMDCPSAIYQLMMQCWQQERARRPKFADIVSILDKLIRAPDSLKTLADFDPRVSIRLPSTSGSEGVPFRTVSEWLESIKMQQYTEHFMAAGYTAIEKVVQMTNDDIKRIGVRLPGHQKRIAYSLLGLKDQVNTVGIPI

B1: ephrin-B2: a 38-42 kDa, 333 amino acid glycoprotein; ephrin ligand (protein, UniProt P52799 1-333, looked up)
chain: MAVRRDSVWKYCWGVLMVLCRTAISKSIVLEPIYWNSSNSKFLPGQGLVLYPQIGDKLDIICPKVDSKTVGQYEYYKVYMVDKDQADRCTIKKENTPLLNCAKPDQDIKFTIKFQEFSPNLWGLEFQKNKDYYIISTSNGSLEGLDNQEGGVCQTRAMKILMKVGQDASSAGSTRNKDPTRRPELEAGTNGRSSTTSPFVKPNPGSSTDGNSAGHSGNNILGSEVALFAGIASGCIIFIVIIITLVVLLLKYRRRHRKHSPQHTTTLSLSTLATPKRSGNNNGSEPSDIIIPLRTADSVFCPHYEKVSGDYGHPVYIVQEMPPQSPANIYYKV
modifications: full-length
notes: a 38-42 kDa, 333 amino acid glycoprotein; ephrin ligand
- Kd (EphB4): 0.535 nM

B2: ephrin-A1: a 25 kDa, 205 amino acid glycoprotein; ephrin ligand (protein, UniProt P20827 1-205, looked up)
chain: MEFLWAPLLGLCCSLAAADRHTVFWNSSNPKFRNEDYTIHVQLNDYVDIICPHYEDHSVADAAMEQYILYLVEHEEYQLCQPQSKDQVRWQCNRPSAKHGPEKLSEKFQRFTPFTLGKEFKEGHSYYYISKPIHQHEDRCLRLKVTVSGKITHSPQAHDNPQEKRLAADDPEVRVLHSIGHSAAPRLFPLAWTVLLLPLLLLQTP
modifications: full-length
notes: a 25 kDa, 205 amino acid glycoprotein; ephrin ligand
- Kd (EphA2): 25 nM
